Results reported in patent US20210355194A1 (TWIST BIOSCIENCE, published 2021).
Like-named read-outs stand apart in the source and are kept apart here.

Legend:
[1] = target: T1, COVID S1 RBM Fc fusion (Antigen 2) (SARS-CoV-2, UniProt P0DTC2 437-508); assay: phage ELISA
T1 construct: domain: RBM

S1 Fc fusion protein [2] = target: T2, S1 Fc fusion protein (SARS-CoV-2, UniProt P0DTC2 14-685); assay: phage ELISA
T2 construct: domain: S1

[3] = target: T3, COVID S1 RBD Fc fusion (Antigen 1) (SARS-CoV-2, UniProt P0DTC2 319-541); assay: phage ELISA
[4] = target: T4, SARS-CoV-2 S1 (antigen of the Carterra SPR kinetics) (SARS-CoV-2, UniProt P0DTC2 16-685); assay: Carterra SPR
[5] = target: T1, COVID S1 RBM Fc fusion (Antigen 2); assay: phage ELISA; remark: listed apart in the source
S1 Fc fusion protein [6] = target: T2, S1 Fc fusion protein; assay: phage ELISA; remark: listed apart in the source
[7] = target: T3, COVID S1 RBD Fc fusion (Antigen 1); assay: phage ELISA; remark: listed apart in the source
[8] = target: T4, SARS-CoV-2 S1 (antigen of the Carterra …); assay: Carterra SPR; remark: listed apart in the source
[9] = target: T5, COVID S1 RBD Fc fusion (Antigen 1) (SARS-CoV-2, UniProt P0DTC2 319-541); assay: phage ELISA; remark: listed apart in the source
S1 Fc fusion protein [10] = target: T6, S1 Fc fusion protein (SARS-CoV-2, UniProt P0DTC2 14-685); assay: phage ELISA
[11] = target: T7, COVID S1 RBM Fc fusion (Antigen 2) (SARS-CoV-2, UniProt P0DTC2 437-508); assay: phage ELISA
[12] = target: T5, COVID S1 RBD Fc fusion (Antigen 1); assay: phage ELISA; remark: listed apart in the source
S1 Fc fusion protein [13] = target: T6, S1 Fc fusion protein; assay: phage ELISA; remark: listed apart in the source
[14] = target: T7, COVID S1 RBM Fc fusion (Antigen 2); assay: phage ELISA; remark: listed apart in the source

| Binder | ELISA fold over background [1] [fold] | ELISA fold over background (S1 Fc fusion protein [2]) [fold] | ELISA fold over background [3] [fold] | Kd [4] [nM] | koff [4] [s⁻¹] | kon [4] [M⁻¹ s⁻¹] | ELISA fold over background [5] [fold] | ELISA fold over background (S1 Fc fusion protein [6]) [fold] | ELISA fold over background [7] [fold] | koff [8] [s⁻¹] | kon [8] [M⁻¹ s⁻¹] | ELISA fold over background [9] [fold] | ELISA fold over background (S1 Fc fusion protein [10]) [fold] | ELISA fold over background [11] [fold] | ELISA fold over background [12] [fold] | ELISA fold over background (S1 Fc fusion protein [13]) [fold] | ELISA fold over background [14] [fold] |
| --- | --- | --- | --- | --- | --- | --- | --- | --- | --- | --- | --- | --- | --- | --- | --- | --- | --- |
| SARS-CoV-2 S1 variant 2-2 (antibody, V domains shown) VH: EVQLLESGGGLVQPGGSLRLSCAASGFTFSRHAMNWVRQAPGKGLEWVSGISGSGDETYYADSVKGRFTISRDNSKNTLYLQMNSLRAEDTAVYYCARDLPASYYDSSGYYWHNGMDVWGQGTLVTVSS VL: DIQMTQSPSSLSASVGDRVTITCRASQTINTYLNWYQQKPGKAPKLLIYSASTLQSGVPSRFSGSGSGTDFTLTISSLQPEDFATYYCQQSYSTFTFGQGTKVEIK | 1.1 | 4.7 | 39.6 | 11.7 | 0.000906 | 77400 | 1.1 | 4.7 | 39.6 | 0.000906 | 77400 | – | – | – | – | – | – |
| SARS-CoV-2 variant 1-27 (antibody, V domains shown) VH: EVQLLESGGGLVQPGGSLRLSCAASGFTFSSYAMTWVRQAPGKGLEWVSAISGSGGGTYYADSVKGRFTISRDNSKNTLYLQMNSLRAEDTAVYYCASSSSWQFDYWGQGTLVTVSS VL: QSALTQPASVSGSPGQSITISCTGTSSYVGHYNLVSWYQQHPGKAPKLMIYEGSRRPSGVSNRFSGSKSGNTASLTISGLQAEDEADYYCCSYAGSYTHYVFGGGTKLTVL | – | – | – | – | – | – | – | – | – | – | – | 1.9 | 1.3 | 1.6 | 1.9 | 1.3 | 1.6 |
| SARS-CoV-2 variant 1-10 (antibody, V domains shown) VH: EVQLLESGGGLVQPGGSLRLSCAASGFTFSSYDMSWVRQAPGKGLEWVSVISGSGGSTYYADSVKGRFTISRDNSKNTLYLQMNSLRAEDTAVYYCAKGPLVGWYFDLWGQGTLVTVSS VL: QSALTQPASVSGSPGQSITISCTGTSSNVGSYNLVSWYQQHPGKAPKLMIYEGTKRPSGVSNRFSGSKSGNTASLTISGLQAEDEADYYCCSYAGSSSFVVFGGGTKLTVL | – | – | – | – | – | – | – | – | – | – | – | 17.4 | 1.3 | 1.1 | 17.4 | 1.3 | 1.1 |
| SARS-CoV-2 variant 1-7 (antibody, V domains shown) VH: EVQLLESGGGLVQPGGSLRLSCAASGFTFSSYDMSWVRQAPGKGLEWVSVISGSGGSTYYADSVKGRFTISRDNSKNTLYLQMNSLRAEDTAVYYCAKGPLVGWYFDLWGQGTLVTVSS VL: QSALTQPASVSGSPGQSITISCTGTSSDFGSYNLVSWYQQHPGKAPKLMIYEGNKRPSGVSNRFSGSKSGNTASLTISGLQAEDEADYYCCSYAGSSTFVVFGGGTKLTVL | – | – | – | – | – | – | – | – | – | – | – | 3.3 | 1.7 | 1.6 | 3.3 | 1.7 | 1.6 |
| SARS-CoV-2 variant 1-35 (antibody, V domains shown) VH: EVQLLESGGGLVQPGGSLRLSCAASGFTFSNYAMSWVRQAPGKGLEWVSDISGSGGSTYYADSVKGRFTISRDNSKNTLYLQMNSLRAEDTAVYYCVKGTIPIFGVIRSAFDYWGQGTLVTVSS VL: QSALTQPASVSGSPGQSITISCTGTSSDVGSYSLVSWYQQHPGKAPKLMIYEGTKRPSGVSNRFSGSKSGNTASLTISGLQAEDEADYYCCSYAGSYSYVVFGGGTKLTVL | – | – | – | – | – | – | – | – | – | – | – | 1.8 | 1.4 | 1.6 | 1.8 | 1.4 | 1.6 |
| SARS-CoV-2 variant 1-36 (antibody, V domains shown) VH: EVQLLESGGGLVQPGGSLRLSCAASGLTFSSYAMSWVRQAPGKGLEWVSDISGSGGSTYYADSVKGRFTISRDNSKNTLYLQMNSLRAEDTAVYYCVKGTIPIFGVIRSAFDYWGQGTLVTVSS VL: QSALTQPASVSGSPGQSITISCTGTSSDVGSYSLVSWYQQHPGKAPKLMIYEGDKRPSGVSNRFSGSKSGNTASLTISGLQAEDEADYYCCSYAGSYSYVVFGGGTKLTVL | – | – | – | – | – | – | – | – | – | – | – | 1.2 | 1.1 | 0.8 | 1.2 | 1.1 | 0.8 |
| SARS-CoV-2 variant 1-25 (antibody, V domains shown) VH: EVQLLESGGGLVQPGGSLRLSCAASGFTFSDYAMNWVRQAPGKGLEWVSIISGSGGSTYYADSVKGRFTISRDNSKNTLYLQMNSLRAEDTAVYYCAREGYRDYLWYFDLWGQGTLVTVSS VL: QSALTQPASVSGSPGQSITISCSGTSSDVGSYNLVSWYQQHPGKAPKLMIYEASKRPSGVSNRFSGSKSGNTASLTISGLQAEDEADYYCCSYAGSSTVFGGGTKLTVL | – | – | – | – | – | – | – | – | – | – | – | 2.7 | 1 | 0.8 | 2.7 | 1 | 0.8 |
| SARS-CoV-2 variant 1-23 (antibody, V domains shown) VH: EVQLLESGGGLVQPGGSLRLSCAASGFTFSSYAISWVRQAPGKGLEWVSIISGSGGSTYYADSVKGRFTISRDNSKNTLYLQMNSLRAEDTAVYYCAREGYRDYLWYFDLWGQGTLVTVSS VL: QSALTQPASVSGSPGQSITISCTGTSNDVGSYNLVSWYQQHPGKAPKLMIYEGNKRPSGVSNRFSGSKSGNTASLTISGLQAEDEADYYCCSYAGSYTVFGGGTKLTVL | – | – | – | – | – | – | – | – | – | – | – | 3.6 | 1.6 | 1.6 | 3.6 | 1.6 | 1.6 |
| SARS-CoV-2 variant 1-24 (antibody, V domains shown) VH: EVQLLESGGGLVQPGGSLRLSCAASGFTFSSYAMNWVRQAPGKGLEWVSIISGSGGSTYYADSVKGRFTISRDNSKNTLYLQMNSLRAEDTAVYYCAREGYRDYLWYFDLWGQGTLVTVSS VL: QSALTQPASVSGSPGQSITISCTGTSSDVGYYNLVSWYQQHPGKAPKLMIYEGNKRPSGVSNRFSGSKSGNTASLTISGLQAEDEADYYCCSYAGGSVVFGGGTKLTVL | – | – | – | – | – | – | – | – | – | – | – | 11 | 1.1 | 1.3 | 11 | 1.1 | 1.3 |
| SARS-CoV-2 S1 variant 2-5 (antibody, V domains shown) VH: EVQLLESGGGLVQPGGSLRLSCAASGFTFSDFAMAWVRQAPGKGLEWVSAISGSGDITYYADSVKGRFTISRDNSKNTLYLQMNSLRAEDTAVYYCAREADGLHSPWHFDLWGQGTLVTVSS VL: DIQMTQSPSSLSASVGDRVTITCRASQSIHTYLNWYQQKPGKAPKLLIYAASALASGVPSRFSGSGSGTDFTLTISSLQPEDFATYYCQQSYSAPPYTFGQGTKVEIK | 1.1 | 24.3 | 35.9 | 2.8 | 0.000259 | 93900 | 1.1 | 24.3 | 35.9 | 0.000259 | 93900 | – | – | – | – | – | – |
| SARS-CoV-2 variant 1-48 (antibody, V domains shown) VH: EVQLLESGGGLVQPGGSLRLSCAASGFTFSSHAMYWVRQAPGKGLEWVSAISGSAGSTYYADSVKGRFTISRDNSKNTLYLQMNSLRAEDTAVYYCAHDTKDFWSGYCIFDPWGQGTLVTVSS VL: QSALTQPASVSGSPGQSITISCTGTSSDIGSYNLVSWYQQHPGKAPKLMIYEGTKRPSGVSNRFSGSKSGNTASLTISGLQAEDEADYYCCSYAGSRTYVFGGGTKLTVL | – | – | – | – | – | – | – | – | – | – | – | 2.1 | 0.8 | 0.8 | 2.1 | 0.8 | 0.8 |
